The target in assay [1] is T1, human CLDN18.1 on cells (CHO-hCLDN18.1) (human, UniProt P56856 1-261).
T1 construct: whole, on cells; also called human Claudin18.1
Briefly: flow cytometry, hybridoma supernatant on CHO-hCLDN18.1.

Assay [2] addresses T2, human Claudin18.2 protein (P50251802, GenScript) (human, UniProt P56856-2 1-261, limits assumed).
T2 construct: also called human CLDN18.2
In words: SPR (Biacore T200), human Claudin18.2 amine-coupled to the chip, antibody 0-100 nM in the mobile phase, 1:1 model. Here is the method:
According to the manufacturer's instructions, human Claudin18.2 (GenScrip, P50251802) was coupled to the surface of a CMS chip (GE Healthcare, 29-1496-03) using the amino coupling kit (GE Healthcare, BR-1006-33), and the remaining activation sites were blocked by injection of 1 M ethanolamine after coupling. According to the manufacturer's instructions, the binding and dissociation between the antigen on the chip surface and antibodies in the mobile phase were determined by Biacore (GE Healthcare, T200) to obtain affinity and kinetic constants. The antibodies (0-100 nM) after gradient dilution flowed over the chip surface in an order from low to high concentrations, with the binding time of 180 s and the dissociation time of 600 s. Finally, the chip was regenerated using 10 mM Glycine pH 1.5 (GE Healthcare, BR-1003-54). Kinetic analysis of the data results were performed using Biacore T200 analysis software with a 1:1 binding model.
(In general: SPR reads the build-up and loss of mass on a sensor chip optically.)

This is an account of results in patent US20230235047A1 (Innovent, published 2023).

Where a chain is given by its changes, count along the chain named.

B1: 3G3 (antibody secreted by the hybridoma, culture supernatant) (antibody, V domains shown)
VH: QVQLQQSGPQLVRPGASVKISCKASGYSFTTYWMHWVKQRPGQGLEWIGLIDPSDSETRLNQKFKDKATLTVDKSSSTAYMRLSSPTSEDSAVYYCASNRWLLGWGQGTLVTVSS
VL: DIQMIQSPSSLTVTAGEKVTMSCKSSQSLLNSGNQKNYLTWYQQKPGQPPKLLIYWASTRESGVPDRFTGSGSGTDFTLTISSVQTEDLAVYYCQNDYSYPLTFGAGTKLEIK
In the case of B1, the binding result in assay [1] is “no binding”.

B2: 51H10 (antibody secreted by the hybridoma, culture supernatant) (antibody, V domains shown)
VH: EVQLQQSVPELVKPGASVRMSCKASGYTFTKYIIQWVKQKPGQGLEWIAYINPYNDDTKYNEKFKGKATLTSDKSASTAYMELSSLTSEDSAVYYCATTYYGNSFPNWGQGTLVTVSA
VL: B1 VL with Q3V, I5T, K18R, S22T, V84L, T86S, Y93F, Y100F, L102F, A106S
With B2, the binding result in assay [1] is “no binding”.

B3: 69H9 (antibody secreted by the hybridoma, culture supernatant) (antibody, V domains shown)
VH: EVQLQQSGPELMKPGASVKISCKATGYSFSSYNIHWVKQSHGKSLEWIGYIAPFNGDSRYNQKFKGKATVTVDKSSSTAYMHLSSLTSEDSAVYYCGRLNRGNSLDYWGQGTSLTVSS
VL: B1 VL with Q3V, I5T, L30F, K36R, T86A, V91F, D97N, S99I, I112L
Regarding B3, the binding result in assay [1] is recorded as “no binding”.

B4: 46F6 (antibody secreted by the hybridoma, culture supernatant) (antibody, V domains shown)
VH: QVQLKESGPGLVAPSQSLSITCTVSGFSLTDYGVSWIRQPPGKGLEWLGVMWGGGNTYYNSALKSRLSISKDNSKSQVFLKMNSLQSDDTAMYYCAKQRYGGNAMDYWGQGTSVTVSS
VL: B1 VL with I5T, K36R, K45I, D66N, T75A, D76E, D97S, S99F, L102F, I112L
As to B4, the binding result in assay [1] is reported as “no binding”.

B5: 25C7 (antibody secreted by the hybridoma, culture supernatant) (antibody, V domains shown)
VH: EVMLVESGGGLVQPGGSRKLSCAASGFTFSDYGMAWVRQAPGKGPEWVAFINNLAYSIYYVDTVTGRFTISRENAKDTLYLEMSSLRSEDTALYYCARFTTGNVMDYWGQGTSVTVSS
VL: B1 VL with Q3V, I5T, S22T, S32G, A57S, S82T, T86A, D97S, A106S, I112L
In the case of B5, in assay [1], the binding result was “no binding”.

B6: 14A5 (antibody secreted by the hybridoma, culture supernatant) (antibody, V domains shown)
VH: QVQLKESGPGLVAPSQSLSITCSVSGFSLNSYGVGWVRQPPGKGLEWLGVIWGDGSTNYHSVLISRLSIRKDNSKSQVFLKLNSLQTDDTATYYCAMITRGNAMDYWGQGTSVTVSS
VL: DIVMTQSPSSLTVTAGEKITMSCKSSQSLLNSGNQRNYLTWYQQKPGQTPKLLIYWASTRKSGVPDRFTGSGSGTDFTLTISSVQAEDLAVYSCQNNYLFPLTFGAGTKLELK
As for B6, in assay [1], the binding result is reported as “no binding”.

B7: 59C1 (antibody secreted by the hybridoma, culture supernatant) (antibody, V domains shown)
VH: QVQLKESGPDLVKPSQSLSLTCTVTGYSITSGYGWNWIRQFPGNKLEWMGYIHFSGSTNYNPSLKSRISITRDTSKNQFFLQLNSVTTEDTATYYCARSGKGNAMDYWGQGTSVTVSS
VL: DIQMTQSPSSLTVTAGEKVTMSCKSSQSLLNSGNQKNYLTWYQQKPGQPPKLLIYWASTRESGVPDRFTGSGSGTDFTLTVINMQAEDLALYYCQNDYYFPFTFGSGTKLEIK
As to B7, in assay [1], the binding result is listed as “no binding”.

B8: Hz51H10 (antibody, human IgG1, kappa, V domains shown)
VH: QVQLVQSGAEVKKPGASVKVSCKASGYTFTKYIIQWVRQAPGQRLEWMGYINPYNDDTKYNEKFKGRVTITRDTSASTAYMELSSLRSEDMAVYYCARTYYGNSFPNWGQGTLVTVSS
VL: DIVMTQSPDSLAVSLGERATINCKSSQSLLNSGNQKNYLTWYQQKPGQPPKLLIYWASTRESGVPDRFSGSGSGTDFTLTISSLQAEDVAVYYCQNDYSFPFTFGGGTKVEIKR
In assay [2], B8 came in with a dissociation constant (Kd) of 1.94 nM, a koff of 0.000631 s⁻¹ and an on-rate constant (kon) of 325000 M⁻¹ s⁻¹.

B9: Hz38F8 (antibody, human IgG1, kappa, V domains shown)
VH: EVQLVESGGGLVQPGGSLRLSCAASGFSFSDYGMHWVRQAPGKGLEWVSYINSGSRTLYYADTVKGRFTISRDNAKNSLYLQMNSLRDEDTAVYYCARNAYYGNAMDYWGQGTLVTVSS
VL: DIVMTQSPDSLAVSLGERATINCKSSQSLLNSGNQRNYLTWYQQKPGQPPKLLIYWSSTRGSGVPDRFSGSGSGTDFTLTISSLQAEDVAVYYCQNVYYYPFTFGQGTRLEIKR
In assay [2], B9 came in with a Kd of 0.314 nM, an off-rate constant (koff) of 9.97e-05 s⁻¹ and a kon of 318000 M⁻¹ s⁻¹.

B10: Hz46F6 (antibody, human IgG1, kappa, V domains shown)
VH: QVQLQESGPGLVKPSETLSLTCTVSGFSLTDYGVSWIRQPPGKGLEWIGVMWGGGNTYYNSALKSRVTISVDTSKNQFSLKLSSVTAADTAVYYCARQRYGGNAMDYWGQGTLVTVSS
VL: B9 VL with S57A, G61E, V97S, Y99F, Q106G, R109K, L110V
In the case of B10, in assay [2], the Kd was determined as 1.03 nM, the koff turned out to be 0.00015 s⁻¹ and the kon stood at 147000 M⁻¹ s⁻¹.

B11: Hz25C7 (antibody, human IgG1, kappa, V domains shown)
VH: EVQLVESGGGLVQPGGSLRLSCAASGFTFSDYGMAWVRQAPGKGLEWVAFINNLAYSIYYVDTVTGRFTISRDNAKNSLYLQMNSLRAEDTAVYYCARFTTGNVMDYWGQGTLVTVSS
VL: B9 VL with N31Q, S32G, R36K, G61E, V97S, Y99S, F102L, Q106G, R109K, L110V
For B11, in assay [2], the affinity, expressed as Kd, was 9.84 nM; the koff was found to be 0.00114 s⁻¹; the kon worked out at 116000 M⁻¹ s⁻¹.

B12: Hz59C1 (antibody, human IgG1, kappa, V domains shown)
VH: QVQLQESGPGLVKPSETLSLTCTVSGYSITSGYGWNWIRQPPGKGLEWIGYIHFSGSTNYNPSLKSRVTISVDTSKNQFSLKLSSVTAADTAVYYCARSGKGNAMDYWGQGTLVTVSS
VL: B9 VL with R36K, S57A, G61E, V97D, Y100F, Q106G, R109K, L110V
Consider B12, for which, in assay [2], the dissociation constant (Kd) amounted to 1.75 nM, the koff came out at 0.000433 s⁻¹ and the kon was determined as 248000 M⁻¹ s⁻¹.

B13: Hz14A5 (antibody, human IgG1, kappa, V domains shown)
VH: QVQLQESGPGLVKPSETLSLTCTVSGFSLNSYGVGWIRQPPGKGLEWIGVIWGDVSTNYHSVLISRVTISKDTSKNQVSLKLSSVTAADTAVYYCARITRGNAMDYWGQGTLVTVSS
VL: B9 VL with S57A, G61K, V97N, Y99L, Y100F, F102L, Q106G, R109K, L110V
In assay [2], B13 displayed a Kd of 0.49 nM, a koff of 0.000208 s⁻¹ and a kon of 424000 M⁻¹ s⁻¹.

B14: Hz3G3 (antibody, human IgG1, kappa, V domains shown)
VH: QVQLVQSGAEVKKPGASVKVSCKASGYSFTTYWMHWVRQAPGQGLEWMGLIDPSDSETRLNQKFKDRVTMTVDTSTSTVYMELSSLRSEDTAVYYCASNRWLLGWGQGTLVTVSS
VL: B9 VL with R36K, S57A, G61E, V97D, Y99S, F102L, R109K
Consider B14, for which, in assay [2], the affinity, expressed as Kd, was 14.2 nM; the koff worked out at 0.000799 s⁻¹; the kon amounted to 56500 M⁻¹ s⁻¹.

B15: HB37A6 (antibody secreted by the hybridoma, culture supernatant) (antibody, V domains shown)
VH: EVQLLDSGGGLVQPGGSLRLSCAASGFTFSSYVMSWVRQAPGKGLNWVSTISHSGGSTYYADSVKGRFTISRDNSKNTLYLQMNSLRAEDTAVYYCAIDAPYYDILTGYRYWGQGTLVTVSS
VL: not shown
As for B15, the binding result in assay [1] is reported as “no binding”.

B16: 38F8 (antibody secreted by the hybridoma, culture supernatant) (antibody, V domains shown)
VH: EVQLVESGGGLVKPGGSLKLSCAASGFSFSDYGMHWVRQAPEKGLEWIAYINSGSRTLYYADTVKGRFTISRDNAKNTLFLQMTSLRSEETAMYYCTRNAYYGNAMDYWGQGTSVTVSS
VL: DIQMTQSPSSLTVTAGEKVTMSCKSSQSLLNSGNQRNYLTWYQQIPGQPPKLLIYWSSTRGSGVPDRFTGSGSGTDFTLTISSVQAEDLAVYFCQNVYYYPFTFGSGTRLEVK
In the case of B16, the binding result in assay [1] is “no binding”.

A word on the Kd: it is a measure of binding affinity in units of concentration. A low value points to tighter binding. As a reminder, the koff is the first-order rate constant of dissociation. Broadly, the kon is the rate constant with which the complex forms. Higher therefore signals faster complex formation.
